Results from publication PMC6793842 (PLoS Biology, 2019).
Substitutions are numbered along the chain they refer to.

B1: introgressed ancestral RH5 (reticulocyte-binding protein homologue 5) (ligand)
chain: FENAIKKTKNQENNLTLLPIKSTEEEKDDIKNGKDIKKEIDNDKENIKTNNAKDHSTYIKSYLNTNVNDGLKYLFIPSHNSFIKKYSVFNQINDGMLLNEKNDVKNNEDYKNVDYKNVNFLQYDFKELSNYNIANSIDILQEKEGHLDFVIIPHYTFLDYYKHLSYNSIYHKYSTHGKYIAVDAFIKKINERYDQVKSKCNDIKNDLIATIKKLEHPYDINNKNDDSYRYDISEEIDDKSEETDDETEEVEDSIQDTDSNHTPSNKKKNDLMNRTFKKMMDEYNTKKKKLIKCIKNHENDFNKICMDMKNYGTNLFEQLSCYNNNFCNTNGIRYHYDEYIHKLILSVKSKNLNKDLSDMTNILQQSELLLTNLNKKMGSYIYIDTIKFIHKEMKHIFNRIEYHTKIINDKTKIIQDKIKLNIWRTFQKDELLKRILDMSNEYSLFITSDHLRQMLYNTFYSKEKHLNNIFHHLIYVLQMKFNDVPIKMEYFQTYKKNKPLTQ
B2: human basigin, entire ectodomain (receptor)
chain: EPGTVFTTVEDLGSKILLTCSLNDSATEVTGHRWLKGGVVLKEDALPGQKTEFKVDSDDQWGEYSCVFLPEPMGTANIQLHGPPRVKAVKSSEHINEGETAMLVCKSESVPPVTDWAWYKITDSEDKALMNGSESRFFVSSSQGRSELHIENLNMEADPGQYRCNGTSSKGSDQAIITLRVRSHLAAL
modifications: enzymatically monobiotinylated
notes: also called HsBSG; BSG; source: HEK293E, transient transfection, secreted, enzymatically monobiotinylated
B3: chimpanzee basigin, entire ectodomain (receptor)
chain: ASGAAGTVFTTVEDLGSKILLTCYMNDSATEVTGHRWLKGGVVLEEDALPGQKTEFKVDSDDQWGEYSCVFLPEPMGTANIQLHGPPRVKAVKSSEHINEGETAVLVCKSESVPPVTDWAWYKITDSGDKALMNGSESRFFVSSLQGRSELHIENLNMEADPGQYRCNGNSSEGSDQAVITLRVRSHLA
modifications: enzymatically monobiotinylated
B4: P. falciparum RH5 (reticulocyte-binding protein homologue 5) (ligand)
chain: B1 chain with D124H, Y173S, H176Y, Y179C, R192T, Q195K

Columns and labels:
Experiment in all cases: SPR
Details in all cases: both partners purified
[1] = target: B2
[2] = target: T1, gorilla basigin, entire ectodomain (gorilla, enzymatically monobiotinylated)
T1 construct: also called gorilla BSG; source: HEK293E, transient transfection, secreted, enzymatically monobiotinylated

[3] = target: T2, P. falciparum RH5 (reticulocyte-binding protein homologue 5) (P. falciparum (3D7), UniProt Q8IFM5 25-526)
T2 sequence: B1 chain with D124H, Y173S, H176Y, Y179C, R192T, Q195K

P. gaboni RH5 = P. gaboni RH5 (P. gaboni)
P. reichenowi RH5 = P. reichenowi RH5 (P. reichenowi, UniProt B4X6H6 1-535)
[4] = target: T3, P. falciparum P113, biotinylated bait (P. falciparum, UniProt Q8ILP3 23-945, biotin (enzymatic monobiotinylation; site not stated))
T3 construct: source: HEK293E, transient transfection, secreted; enzymatically monobiotinylated bait
T3 sequence: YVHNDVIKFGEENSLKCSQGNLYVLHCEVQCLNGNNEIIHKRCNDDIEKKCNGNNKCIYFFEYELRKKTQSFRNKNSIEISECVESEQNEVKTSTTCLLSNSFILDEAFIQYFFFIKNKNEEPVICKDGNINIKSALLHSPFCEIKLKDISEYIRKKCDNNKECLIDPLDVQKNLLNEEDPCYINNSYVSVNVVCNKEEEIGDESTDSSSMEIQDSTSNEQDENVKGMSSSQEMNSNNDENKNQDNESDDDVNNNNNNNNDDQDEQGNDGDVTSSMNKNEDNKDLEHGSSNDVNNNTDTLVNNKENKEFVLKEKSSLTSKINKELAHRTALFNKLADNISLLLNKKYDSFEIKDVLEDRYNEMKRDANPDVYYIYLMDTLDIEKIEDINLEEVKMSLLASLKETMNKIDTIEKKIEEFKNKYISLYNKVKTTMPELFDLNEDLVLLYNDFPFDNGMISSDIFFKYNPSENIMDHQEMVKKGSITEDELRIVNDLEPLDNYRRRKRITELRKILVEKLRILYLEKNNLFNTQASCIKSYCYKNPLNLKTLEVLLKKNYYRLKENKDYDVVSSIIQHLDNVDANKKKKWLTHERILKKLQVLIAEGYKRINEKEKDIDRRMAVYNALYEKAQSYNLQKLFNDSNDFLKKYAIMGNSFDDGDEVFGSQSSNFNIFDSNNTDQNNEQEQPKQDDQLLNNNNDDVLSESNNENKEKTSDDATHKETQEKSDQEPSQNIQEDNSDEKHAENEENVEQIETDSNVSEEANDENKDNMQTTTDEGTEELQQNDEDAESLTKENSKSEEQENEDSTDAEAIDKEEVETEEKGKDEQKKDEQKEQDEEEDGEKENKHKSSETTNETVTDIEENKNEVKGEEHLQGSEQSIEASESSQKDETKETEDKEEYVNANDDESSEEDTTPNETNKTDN

Binder: B1
- Kd [1]: 2300 ± 100 nM
- Kd [2]: 3000 ± 300 nM

Binder: B2
- Kd [3]: 1500 ± 200 nM

Binder: B3
- Kd (P. gaboni RH5): 2900 ± 100 nM
- Kd (P. reichenowi RH5): 4300 ± 500 nM

Binder: B4
- binding result [4]: binds
